Test results published in the domain aggregation screens of Martell et al. (2025).

Assay: soluble fraction after stress (log2 fold change); higher = more stays soluble; pooled small domains, quantitative proteomics
Settings: stress: pH 4
Outline: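 Aggregation propensity is estimated from the fold change in each domain's soluble amount after acid stress. Pooled small-domain libraries were stressed at pH 4, and higher log2 values mean more stayed soluble.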

Row | Sequence | soluble fraction (log2)
1 | HMALPDSEKRQWLVDEVNERGLKLPDDVLEYLFARVGRSQAHLVDVIEKLDFESLAQSRKLTIPFVREVLK | -0.753
2 | HMSEDAVKFRAAVEVENGLAQRNLNKNQAALILGVDRSYFTYIISGKKTPSPDMAKRIGLLLGFDWRVFYA | -0.324
3 | HMDGASLLDIDGDGKVTPTIDGLLLMRWQFGTRGAALIGGISFPAGALRTTVNAIELHMRRLSETT | -1.52
4 | HMGPAYQTQRQEAFAALSEIAAKNPQLMQVAGDLVFRAADFPMADELADRLAKTLPPQLQDKKGQP | -0.313
5 | HMKYTVKSPLPGVIMSVLVKVGDTVKASDTVISLEAMKMENAIHAGRDGKVTSIDVNVGDSVLEGHTLVTI | -1.04
6 | HMREVVLNRIGSVAVQRATTRTWEEWVVTLDAEGMRGKEHRDVVGHLLRAHELTSWWAQMVSVGYEQSRGQ | -0.155
7 | HMSNLVEVPAVIGRMKEDAITMLISAGLEPAVTYDEYPLVKENLVADQSVAPGQKVEKGSFVTITVSRS | 0.22
8 | HMAIDINKIYSEIKKKIPNQDNHIKEILSIIWRDFNNYQNIKSRSILINGEKSSPKKEIFNIIEDNINIPV | 0.00852
9 | HMRQTGWVTADSLNVRARPSLQAERVEKVTYGQQVQIMFKQGQWYQIATENGKIGWVSSEYIAAVSP | 0.0725
10 | HMTLDEDYFYYTLKAKEGYYRLYKKLGVDRKIIDSLNPNLKEMGLQVGMVIRVPKSQTSDLSVKNSLLVE | -0.61
11 | HMSTSLIEFTIDRNNSIANKMIMDANIPEDILVVMIKRNGDVFVPNGSTKILPGDILVLSGNKLKY | -0.785
12 | HMKQYVEPASETEKMVVELWEKVLLTEKIGMHDDFFELGGHSLKAMRLISLYHQEFNVRLSLKSLFEKLK | -1.07
13 | HMTSVRVPVKKEIWFWAIKESQRDLNEILARFPKMDKWINQEENPTFNQLEKVAKFLRVPFGYMFLDKPPK | 0.332
14 | HMVANDQILNQYGISDREAEIIGLLIEGLSNQQIAKQLYISPNTVKTHIKNIYAKVGVNNRLQLFSLLK | -0.549
15 | HMGGKWKLRILLALENSAQDALRYGEIKNIVSGITDMMLSQSLRELTADGLIERRQYQEIPPKVEYRLS | -0.868
16 | HMKIEDSNTIKLKANQAYKTHYYSEAIKLYDELLTKYEPNSEAIKLNLAHAHFKAKGFAAASKLYT | 0.22
17 | HMDRFRYYITEDSVQRGTYPYVDETTLKRFTSQLHKYEQGMISAYGYLEYSKPLTAEQIKDYTLMPSP | -0.485
18 | HMKFLHLADLHLGKRVNGFSMLEDQAYILRQILTILDDERPDGVLIAGDVYDKPVPPTEAVELLD | -0.632
19 | HMSQLVTGVLRNLNDISEKIAAGKAVPEMLGRLENMQQMIANLKGNEGLIKSISILTRSAQDALR | -0.0398
20 | HMGRRSKAMLSSALDAVPGLGEMRRKALISQFGSLKKLRGATPEEIAAVPGIGPKLAAAVHEAVSG | 0.131
21 | HMKIYDQVVDRIKDRISKGDMPQGSALPPERQLIDELNVSRSSLREGFRILEMMGLIESIPGKGRFVRTSR | -0.619
22 | HMHSEEAALLHRYIDSLEEPQHTVVVMRDIGGYSFEEIASVVQLKEAHIWMILSRARRKLRELYIKTMDHH | -0.101
23 | HMLLSTHVVVAKEDVQIGTRLQPAMLQVVDWPSASPLKNPLTSIEQATDRVVNMPLVKGEPISMSKLAAKG | 0.0815
24 | HMQSITAGDKVRVKNYTVSGGKKRGKVYGGAGTFVVYYEKYDVISVTGDRVVIGIGKAVTAAVHIDDLEK | -0.932
25 | HMHMSLTEKYKELTDLAVSAGVQNLNVREQDGVLYVDGDASGAVKQQLWDTYGKLDPDYTSGDLVLNI | -0.696
26 | HMRIYFSPSEIGFYHESDKQAYLLAGTWPNDLLEISEKWFLYLLEGQQKGKVITVNDYDQPVLVD | -2.28
27 | HMAPDAPDGFVHRWIRAEMLGQEDKSNVHRRMQEGYELVRADEYPDSDLPVAEGRYAGIIGVGGLLLARF | -0.268
28 | HMAEVDDESIKLYDGGYQSNTTKSRLNALLSEFGYDTEHVFQKQFEWFISIFDLTEKAMRTVPFSNGMRL | -0.257
29 | HMTRDAQLAALERLMDDPSPVVRKAVLKGVQAAGTEGLLWLQQLSKNQTLGPYALALLTELR | -0.0392
30 | HMLTKGDRQSIRDSIIYMVGNAPRTLDYIVAESRYSEEDVIEAVRSLLSSHILSIDDSDMISLTRK | -0.362
